Measured values: patent publication US20250019427A1 (BYOMASS, published 2025)

T1: Human Activin B (human, UniProt P09529 293-407)
T1 construct: Also used for the Activin B ligand of the ActRIIB/SMAD reporter assay, where the species is not restated
T1 sequence (looked up): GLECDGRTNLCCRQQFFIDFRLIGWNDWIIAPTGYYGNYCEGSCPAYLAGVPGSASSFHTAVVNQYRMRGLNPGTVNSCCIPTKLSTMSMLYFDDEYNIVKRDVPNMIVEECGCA

T2: Human BMP10 (human, UniProt O95393 317-424)
T2 sequence (looked up): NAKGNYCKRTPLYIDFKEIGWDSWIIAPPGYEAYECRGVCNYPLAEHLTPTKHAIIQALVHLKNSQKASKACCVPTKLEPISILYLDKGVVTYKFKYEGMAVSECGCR

T3: Human BMP9 (human, UniProt Q9UK05 320-429)
T3 sequence (looked up): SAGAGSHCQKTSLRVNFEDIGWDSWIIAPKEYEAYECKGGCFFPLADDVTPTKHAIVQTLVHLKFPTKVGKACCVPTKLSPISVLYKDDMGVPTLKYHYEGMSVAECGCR

T4: Human Activin A Fc (human, UniProt P08476 311-426)
T4 sequence (looked up): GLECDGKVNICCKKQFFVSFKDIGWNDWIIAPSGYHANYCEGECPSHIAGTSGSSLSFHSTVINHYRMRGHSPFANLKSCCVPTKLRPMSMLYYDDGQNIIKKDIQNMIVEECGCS

T5: GDNF (UniProt P39905 78-211)
T5 sequence (looked up): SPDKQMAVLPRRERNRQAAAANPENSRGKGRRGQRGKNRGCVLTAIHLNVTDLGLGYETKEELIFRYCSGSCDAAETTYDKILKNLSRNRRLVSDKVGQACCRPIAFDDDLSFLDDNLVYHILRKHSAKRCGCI

T6: GDF10 (UniProt P55107 369-478)
T6 sequence (looked up): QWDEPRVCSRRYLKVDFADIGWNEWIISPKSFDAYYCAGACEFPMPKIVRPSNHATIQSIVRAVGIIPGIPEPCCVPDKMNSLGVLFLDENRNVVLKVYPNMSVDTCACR

T7: GDF15 (Homo sapiens (Human), UniProt Q99988 30-308)
T7 sequence: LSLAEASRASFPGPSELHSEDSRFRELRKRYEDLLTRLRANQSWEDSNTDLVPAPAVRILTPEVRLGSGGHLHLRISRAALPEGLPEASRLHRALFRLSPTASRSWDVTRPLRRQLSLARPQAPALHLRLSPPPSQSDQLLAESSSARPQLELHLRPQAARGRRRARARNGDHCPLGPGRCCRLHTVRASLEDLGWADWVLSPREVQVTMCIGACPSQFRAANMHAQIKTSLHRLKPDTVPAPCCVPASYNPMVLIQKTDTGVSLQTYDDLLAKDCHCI

T8: Mouse GDF15 Fc (mouse, UniProt Q9Z0J7 189-303, limits assumed)
T8 construct: also called mouse GDF15Fc fusion
T8 sequence (looked up): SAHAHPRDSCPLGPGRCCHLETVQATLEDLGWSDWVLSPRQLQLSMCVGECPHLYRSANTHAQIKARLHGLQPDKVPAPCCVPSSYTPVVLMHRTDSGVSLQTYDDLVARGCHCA

T9: Cyno GDF15 Fc (cyno, UniProt G7PWZ3 193-308)
T9 construct: also called cyno GDF15-Fc fusion
T9 sequence: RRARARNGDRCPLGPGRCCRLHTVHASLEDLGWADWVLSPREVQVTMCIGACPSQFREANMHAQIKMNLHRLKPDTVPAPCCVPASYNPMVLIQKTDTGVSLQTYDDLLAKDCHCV


Key:
Human Activin B = biological target: T1, Human Activin B; assay: Octet BLI, IgG on tip, avid
Human BMP10 = biological target: T2, Human BMP10; assay: Octet BLI, IgG on tip, avid
Human BMP9 = biological target: T3, Human BMP9; assay: Octet BLI, IgG on tip, avid
Human Activin A Fc = biological target: T4, Human Activin A Fc; assay: Octet BLI, IgG on tip, avid
GDF11 = biological target: T10, GDF11 (UniProt O95390 299-407); assay: Octet BLI, IgG on tip, avid
T10 construct: Also the GDF-11 ligand of the ActRIIB/SMAD reporter assay
T10 sequence (O95390 299-407 limits assumed): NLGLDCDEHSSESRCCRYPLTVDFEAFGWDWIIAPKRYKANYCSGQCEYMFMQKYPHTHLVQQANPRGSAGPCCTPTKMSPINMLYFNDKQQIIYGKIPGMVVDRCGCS

GDNF = biological target: T5, GDNF; assay: Octet BLI, IgG on tip, avid
GDF10 = biological target: T6, GDF10; assay: Octet BLI, IgG on tip, avid
GDF8 = GDF8 (UniProt O14793 267-375); assay: Octet BLI, IgG on tip, avid
GDF15 = biological target: T7, GDF15; assay: cell-based or functional assay
Mouse GDF15 Fc = biological target: T8, Mouse GDF15 Fc; assay: Octet BLI, Fab monovalent
Cyno GDF15 Fc = biological target: T9, Cyno GDF15 Fc; assay: Octet BLI, Fab monovalent

binding result (Human Activin B)	binding result (Human BMP10)	binding result (Human BMP9)	binding result (Human Activin A Fc)	binding result (GDF11)	binding result (GDNF)	binding result (GDF10)	binding result (GDF8)	GDF15 - GFRAL RET pERK IC50 (pM) (GDF15)	GDF15 - GFRAL-RET Luciferase IC50 (pM) (GDF15)	Kd (GDNF)	GDF15 GFRAL RET pERK Fab IC50 pM (GDF15)	Kd (Mouse GDF15 Fc)	Kd (Cyno GDF15 Fc)	Binder
no binding (tested: 100 nM)	no binding (tested: 100 nM)	no binding (tested: 100 nM)	no binding (tested: 100 nM)	no binding (tested: 100 nM)	no binding (tested: 100 nM)	no binding (tested: 100 nM)	no binding (tested: 100 nM)	254 pM	200 pM	–	–	–	–	Clone H IgG (antibody, V domains shown, IgG format) VH: QVQLVQSGAEVKKPGSSVKVSCKASGGTFSSYYISWVRQAPGQGLEWMGGIAPISGTASYAQKFQGRVTITADESTSTAYMELSSLRSEDTAVYYCARGLAYDGYFDLWGRGTLVTVSS VL: not shown
no binding (tested: 100 nM)	no binding (tested: 100 nM)	no binding (tested: 100 nM)	no binding (tested: 100 nM)	no binding (tested: 100 nM)	–	no binding (tested: 100 nM)	no binding (tested: 100 nM)	30.3 pM	110 pM	–	–	–	–	Clone J IgG (antibody, V domains shown, IgG format) VH: QVQLVQSGAEVKKPGASVKVSCKASGYTFTSYGINWVRQAPGQGLEWMGWIDAYSGSTNYAQKLQGRVTMTTDTSTSTAYMELRSLRSDDTAVYYCARGPGQYADVDVWGQGTMVTVSS VL: DIQMTQSPSSVSASVGDRVTITCRASQGISSWLAWYQQKPGKAPKLLIYAASSLQSGVPSRFSGSGSGTDFTLTISSLQPEDFATYYCQQANSFPITFGGGTKVEIKR
no binding (tested: 100 nM)	no binding (tested: 100 nM)	no binding (tested: 100 nM)	no binding (tested: 100 nM)	no binding (tested: 100 nM)	–	no binding (tested: 100 nM)	no binding (tested: 100 nM)	187 pM	813 pM	333 nM	–	–	–	Clone K IgG (antibody, V domains shown, IgG format) VH: QVQLVQSGAEVKKPGASVKVSCKASGYTFTNEGISWVRQAPGQGLEWMGWISAYTADTFYAQKLQGRVTMTTDTSTSTAYMELRSLRSDDTAVYYCARTRHDTSGLRFDYWGQGTLVTVSS VL: DIQMTQSPSSVSASVGDRVTITCRASQGIDSWLAWYQQKPGKAPKLLIYAASSLQSGVPSRFSGSGSGTDFTLTISSLQPEDFATYYCQQVHSFPITFGGGTKVEIKR
no binding (tested: 100 nM)	no binding (tested: 100 nM)	no binding (tested: 100 nM)	no binding (tested: 100 nM)	no binding (tested: 100 nM)	–	no binding (tested: 100 nM)	no binding (tested: 100 nM)	35.6 pM	–	–	–	–	–	Clone P IgG (antibody, V domains shown, IgG format) VH: QVQLVQSGAEVKKPGATVKVSCKASGYTFDSYGIHWVRQAPGQGLEWMGWITAYSGDTVYAQKLQGRVTMTTDTSTSTAYMELRSLRSDDTAVYYCARESGQTSSALGPWGQGTLVTVSS VL: DIQMTQSPSSVSASVGDRVTITCRASQGISRWLAWYQQKPGKAPKLLIYAASSLQSGVPSRFSGSGSGTDFTLTISSLQPEDFATYYCQQGASFPLTFGGGTKVEIKR
no binding (tested: 100 nM)	no binding (tested: 100 nM)	no binding (tested: 100 nM)	no binding (tested: 100 nM)	no binding (tested: 100 nM)	no binding (tested: 100 nM)	no binding (tested: 100 nM)	no binding (tested: 100 nM)	–	–	–	–	–	–	Clone S IgG (antibody, V domains shown, IgG format) VH: QVQLVQSGAEVKKPGASVKVSCKASGYTFTSYGINWVRQAPGQGLEWMGWITAYSGDTNYAQKLQGRVTMTTDTSTSTAYMELRSLRSDDTAVYYCARGPGQYADVDVWGQGTMVTVSS VL: DIQLTQSPSSVSASVGDRVTITCRASQGISPWLAWYQQKPGKAPKLLIYAASSLQSGVPSRFSGSGSGTDFTLTISSLQPEDFATYYCQQANSFPITFGGGTKVEIKR
no binding (tested: 100 nM)	no binding (tested: 100 nM)	no binding (tested: 100 nM)	no binding (tested: 100 nM)	no binding (tested: 100 nM)	no binding (tested: 100 nM)	no binding (tested: 100 nM)	no binding (tested: 100 nM)	–	–	–	–	–	–	Clone T IgG (antibody, V domains shown, IgG format) VH: QVQLVQSGAEVKKPGASVKVSCKASGYTFTSYGINWVRQAPGQGLEWMGWITAYSGDTNYAQKLQGRVTMTTDTSTSTAYMELRSLRSDDTAVYYCARGPGQYADVDVWGQGTMVTVSS VL: DIQMTQSPSSVSASVGDRVTITCRASQGISSWLAWYQQKPGKAPKLLIYAASSLQSGVPSRFSGSGSGTDFTLTISSLQPEDFATYYCQQASQFPITFGGGTKVEIKR
no binding (tested: 100 nM)	no binding (tested: 100 nM)	no binding (tested: 100 nM)	no binding (tested: 100 nM)	no binding (tested: 100 nM)	–	no binding (tested: 100 nM)	no binding (tested: 100 nM)	13.5 pM	274 pM	229 nM	–	–	–	Clone L IgG (antibody, V domains shown, IgG format) VH: QVQLVQSGAEVKKPGASVKVSCKASGYTFASYDIIWVRQAPGQGLEWMGWISALSGDTVYAQKLQGRVTMTTDTSTSTAYMELRSLRSDDTAVYYCARTRHDTSGIRFDYWGQGTLVTVSS VL: DIQMTQSPSSVSASVGDRVTITCRASQGIDSWLAWYQQKPGKAPKLLIYAASSLQSGVPSRFSGSGSGTDFTLTISSLQPEDFATYYCQQVHSFPITFGGGTKVEIKR
no binding (tested: 100 nM)	no binding (tested: 100 nM)	no binding (tested: 100 nM)	no binding (tested: 100 nM)	no binding (tested: 100 nM)	–	no binding (tested: 100 nM)	no binding (tested: 100 nM)	88.7 pM	–	31.4 nM	–	–	–	Clone M IgG (antibody, V domains shown, IgG format) VH: QVQLVQSGAEVKKPGASVKVSCKASGYTFDSYGINWVRQAPGQGLEWMGWISAYSGDTAYAQELQGRVTMTTDTSTSTAYMELRSLRSDDTAVYYCVRDTQYGGSPYWGQGTLVTVSS VL: not shown
–	–	–	–	–	–	–	–	–	–	–	1370 pM	31.4 nM	1.91 nM	Clone M Fab (Fab, V domains shown, Fab format) VH: QVQLVQSGAEVKKPGASVKVSCKASGYTFDSYGINWVRQAPGQGLEWMGWISAYSGDTAYAQELQGRVTMTTDTSTSTAYMELRSLRSDDTAVYYCVRDTQYGGSPYWGQGTLVTVSS VL: EIVMTQSPATLSVSPGERATLSCRASQSVSSNLAWYQQKPGQAPRLLIYGASTRATGIPARFSGSGSGTEFTLTISSLQSEDFAVYYCQQYNNWPITFGGGTKVEIK
